Experimental data as given in the RNAGym collection of RNA variant scans (doi:10.1021/acssynbio.7b00057).

B1: Pistol ribozyme (parent)
chain: GGGUCGUUGUUCCAUAAUCGCGUGGAUAUGGCACGCAAGUUUCUACCGGGCACCGUAAAUGUCCGACUGGAGCCGUUCGGGCGGCUAUAAACAGACCUCAGGCCCGAAGCGUGGCGGCACCUGCCGCCGGUGGUAAAAAAGAUCGGAAGAGCACACGUCU

Variants of: B1
Test: aptazyme ON/OFF ratio, guanine; higher = stronger switching; co-transcriptional cleavage with and without guanine

Row | Variant | aptazyme ON/OFF ratio
1 | GGGUCGCUUUGUUAUAAUCGCGUGGAUAUGGCACGCAAGUUUCUACCGGGCACCGUAAAUGUCCGACUGGAGCCGUUCGGGCGGCUAUAAACAGACCUCAGGCCCGAAGCGUGGCGGCACCUGCCGCCGGUGGUAAAAAAGAUCGGAAGAGCACACGUCU | 1.3
2 | GGGUCGCAGCGUUAUAAUCGCGUGGAUAUGGCACGCAAGUUUCUACCGGGCACCGUAAAUGUCCGACUGGAGCCGUUCGGGCGGCUAUAAACAGACCUCAGGCCCGAAGCGUGGCGGCACCUGCCGCCGGUGGUAAAAAAGAUCGGAAGAGCACACGUCU | 1.35
3 | GGGUCGCACUGAUAUAAUCGCGUGGAUAUGGCACGCAAGUUUCUACCGGGCACCGUAAAUGUCCGACUGGAGCCGUUCGGGCGGCUAUAAACAGACCUCAGGCCCGAAGCGUGGCGGCACCUGCCGCCGGUGGUAAAAAAGAUCGGAAGAGCACACGUCU | 1.15
4 | GGGUCGAUGCAGCAUAAUCGCGUGGAUAUGGCACGCAAGUUUCUACCGGGCACCGUAAAUGUCCGACUGGAGCCGUUCGGGCGGCUAUAAACAGACCUCAGGCCCGAAGCGUGGCGGCACCUGCCGCCGGUGGUAAAAAAGAUCGGAAGAGCACACGUCU | 1.26
5 | GGGUCGCGUGCUUAUAAUCGCGUGGAUAUGGCACGCAAGUUUCUACCGGGCACCGUAAAUGUCCGACUGGAGCCGUUCGGGCGGCUAUAAACAGACCUCAGGCCCGAAGCGUGGCGGCACCUGCCGCCGGUGGUAAAAAAGAUCGGAAGAGCACACGUCU | 1.04
6 | GGGUCGACCCGUCAUAAUCGCGUGGAUAUGGCACGCAAGUUUCUACCGGGCACCGUAAAUGUCCGACUGGAGCCGUUCGGGCGGCUAUAAACAGACCUCAGGCCCGAAGCGUGGCGGCACCUGCCGCCGGUGGUAAAAAAGAUCGGAAGAGCACACGUCU | 1.06
7 | GGGUCGACGCGGCAUAAUCGCGUGGAUAUGGCACGCAAGUUUCUACCGGGCACCGUAAAUGUCCGACUGGAGCCGUUCGGGCGGCUAUAAACAGACCUCAGGCCCGAAGCGUGGCGGCACCUGCCGCCGGUGGUAAAAAAGAUCGGAAGAGCACACGUCU | 1.25
8 | GGGUCGAUCGAAUAUAAUCGCGUGGAUAUGGCACGCAAGUUUCUACCGGGCACCGUAAAUGUCCGACUGGAGCCGUUCGGGCGGCUAUAAACAGACCUCAGGCCCGAAGCGUGGCGGCACCUGCCGCCGGUGGUAAAAAAGAUCGGAAGAGCACACGUCU | 1.07
9 | GGGUCGAAGAACUAUAAUCGCGUGGAUAUGGCACGCAAGUUUCUACCGGGCACCGUAAAUGUCCGACUGGAGCCGUUCGGGCGGCUAUAAACAGACCUCAGGCCCGAAGCGUGGCGGCACCUGCCGCCGGUGGUAAAAAAGAUCGGAAGAGCACACGUCU | 1.11
10 | GGGUCGCCGUCACAUAAUCGCGUGGAUAUGGCACGCAAGUUUCUACCGGGCACCGUAAAUGUCCGACUGGAGCCGUUCGGGCGGCUAUAAACAGACCUCAGGCCCGAAGCGUGGCGGCACCUGCCGCCGGUGGUAAAAAAGAUCGGAAGAGCACACGUCU | 1.33
11 | GGGUCGAAUUAUAAUAAUCGCGUGGAUAUGGCACGCAAGUUUCUACCGGGCACCGUAAAUGUCCGACUGGAGCCGUUCGGGCGGCUAUAAACAGACCUCAGGCCCGAAGCGUGGCGGCACCUGCCGCCGGUGGUAAAAAAGAUCGGAAGAGCACACGUCU | 1.04
12 | GGGUCGAGGUUUGAUAAUCGCGUGGAUAUGGCACGCAAGUUUCUACCGGGCACCGUAAAUGUCCGACUGGAGCCGUUCGGGCGGCUAUAAACAGACCUCAGGCCCGAAGCGUGGCGGCACCUGCCGCCGGUGGUAAAAAAGAUCGGAAGAGCACACGUCU | 1.24
13 | GGGUCGUACCCUAAUAAUCGCGUGGAUAUGGCACGCAAGUUUCUACCGGGCACCGUAAAUGUCCGACUGGAGCCGUUCGGGCGGCUAUAAACAGACCUCAGGCCCGAAGCGUGGCGGCACCUGCCGCCGGUGGUAAAAAAGAUCGGAAGAGCACACGUCU | 1.01
14 | GGGUCGUCUCGAAAUAAUCGCGUGGAUAUGGCACGCAAGUUUCUACCGGGCACCGUAAAUGUCCGACUGGAGCCGUUCGGGCGGCUAUAAACAGACCUCAGGCCCGAAGCGUGGCGGCACCUGCCGCCGGUGGUAAAAAAGAUCGGAAGAGCACACGUCU | 1.19
15 | GGGUCGAAUACAGAUAAUCGCGUGGAUAUGGCACGCAAGUUUCUACCGGGCACCGUAAAUGUCCGACUGGAGCCGUUCGGGCGGCUAUAAACAGACCUCAGGCCCGAAGCGUGGCGGCACCUGCCGCCGGUGGUAAAAAAGAUCGGAAGAGCACACGUCU | 1.08
16 | GGGUCGCUCUUUUAUAAUCGCGUGGAUAUGGCACGCAAGUUUCUACCGGGCACCGUAAAUGUCCGACUGGAGCCGUUCGGGCGGCUAUAAACAGACCUCAGGCCCGAAGCGUGGCGGCACCUGCCGCCGGUGGUAAAAAAGAUCGGAAGAGCACACGUCU | 1.02
17 | GGGUCGGUCGGCAAUAAUCGCGUGGAUAUGGCACGCAAGUUUCUACCGGGCACCGUAAAUGUCCGACUGGAGCCGUUCGGGCGGCUAUAAACAGACCUCAGGCCCGAAGCGUGGCGGCACCUGCCGCCGGUGGUAAAAAAGAUCGGAAGAGCACACGUCU | 1.17
18 | GGGUCGGAAUGAGAUAAUCGCGUGGAUAUGGCACGCAAGUUUCUACCGGGCACCGUAAAUGUCCGACUGGAGCCGUUCGGGCGGCUAUAAACAGACCUCAGGCCCGAAGCGUGGCGGCACCUGCCGCCGGUGGUAAAAAAGAUCGGAAGAGCACACGUCU | 1.13
